Article PMC10839757

Experiments:
Test in all cases: purified protein
purified protein [1] = substrate: NC(=O)c1ccc[n+]([C@@H]2O[C@H](COP(=O)(O)OP(=O)(O)OC[C@H]3O[C@@H](n4cnc5c(N)ncnc54)[C@H](O)[C@@H]3O)[C@@H](O)[C@H]2O)c1; settings: pH 7.5
purified protein [2] = substrate: NNC(=O)c1ccncc1; settings: pH 7.5
purified protein [3] = substrate: COc1cc(-c2ccc(N)c(OC)c2)ccc1N; settings: pH 5.5

B1: WT-KatG (Mt-KatG, Mycobacterium tuberculosis catalase-peroxidase) (Mycobacterium tuberculosis H37Rv) (protein)
chain: MPEQHPPITETTTGAASNGCPVVGHMKYPVEGGGNQDWWPNRLNLKVLHQNPAVADPMGAAFDYAAEVATIDVDALTRDIEEVMTTSQPWWPADYGHYGPLFIRMAWHAAGTYRIHDGRGGAGGGMQRFAPLNSWPDNASLDKARRLLWPVKKKYGKKLSWADLIVFAGNCALESMGFKTFGFGFGRVDQWEPDEVYWGKEATWLGDERYSGKRDLENPLAAVQMGLIYVNPEGPNGNPDPMAAAVDIRETFRRMAMNDVETAALIVGGHTFGKTHGAGPADLVGPEPEAAPLEQMGLGWKSSYGTGTGKDAITSGIEVVWTNTPTKWDNSFLEILYGYEWELTKSPAGAWQYTAKDGAGAGTIPDPFGGPGRSPTMLATDLSLRVDPIYERITRRWLEHPEELADEFAKAWYKLIHRDMGPVARYLGPLVPKQTLLWQDPVPAVSHDLVGEAEIASLKSQIRASGLTVSQLVSTAWAAASSFRGSDKRGGANGGRIRLQPQVGWEVNDPDGDLRKVIRTLEEIQESFNSAAPGNIKVSFADLVVLGGCAAIEKAAKAAGHNITVPFTPGRTDASQEQTDVESFAVLEPKADGFRNYLGKGNPLPAEYMLLDKANLLTLSAPEMTVLVGGLRVLGANYKRLPLGVFTEASESLTNDFFVNLLDMGITWEPSPADDGTYQGKDGSGKVKWTGSRVDLVFGSNSELRALVEVYGADDAQPKFVQDFVAAWDKVMNLDRFDVR
How did the Km (purified protein [1]) turn out when B1 was run?
Its Km is 210 ± 40 µM.

What about the kcat/Km (purified protein [1]) of the same protein?
The kcat/Km was 443 M⁻¹ s⁻¹.

What about the Km (purified protein [2]) of the same protein?
Its Km is 1900 ± 100 µM.

And the kcat/Km (purified protein [2])?
The kcat/Km was 50.6 M⁻¹ s⁻¹.

And the Km (purified protein [3])?
Its Km is 2.1 ± 0.8 µM.

What about the kcat/Km (purified protein [3]) of the same protein?
The kcat/Km was 3.1e+06 M⁻¹ s⁻¹.
